The results in this text go back to patent US20230365658A1.

The target in assay [1] is COV2-RBD (rpk9) B.1.1.529 R346K (BA.1.1) (SARS-CoV-2).
The target of assay [2] is SARS-CoV-2 spike (S) glycoprotein, D614G (SARS-CoV-2) (UniProt P0DTC2). The assay can be described thus: cell-based or functional assay.

Several values for one entry are separate records, joined by “and”; a condition that tells them apart may be missing. Identical values can stand only once.

Usually EC50 stands for the midpoint of the concentration-response curve. Consider COV2-2130 (antibody), for which the EC50 in assay [1] is 4.13 µg/mL and 3.54 µg/mL.

Take rS2K146 (antibody): the normalized pseudoneutralization IC50 in assay [2] was 0.00656 µg/mL.
